US12030929B2, “Fusobacterium nucleatum amyloid-like FadA for diagnosis and treatment of Fn-mediated pathogenesis” (The Trustees of Columbia University in the City of New York, priority 2021, dated 2024)
Positions count from the first letter of the chain named. Names and notes keep the numbering of the source.

B1: FadAc: recombinant active heterogeneous complex of pre-FadA and mFadA (protein)
chain 1: MKKFLLLAVLAVSASAFAATDAASLVGELQALDAEYQNLANQEEARFNEERAQADAARQALAQNEQVYNELSQRAQRLQAEANTRFYKSQYQELASKYEDALKKLEAEMEQQKAVISDFEKIQALRAGN
chain 2: ATDAASLVGELQALDAEYQNLANQEEARFNEERAQADAARQALAQNEQVYNELSQRAQRLQAEANTRFYKSQYQELASKYEDALKKLEAEMEQQKAVISDFEKIQALRAGN
B2: L14A (protein)
chain: B1 chain 2 with L14A
B3: S71A (protein)
chain 1: B1 chain 1
chain 2: B1 chain 2 with S71A
B4: mFadA: cleaved mature form of FadA, 111 aa residues without the signal peptide (protein)
chain: B1 chain 2
B5: L76A (protein)
chain: B1 chain 2 with L76A

System: Fn binding to human CRC cells DLD1
Experiment: Cell culture attachment assay, DLD1
Type: cell-based
Details: 50 μg FadAc pre-incubated with DLD1 for 45 min

Molecule | inhibition of Fn binding to DLD1
B1 | effectively inhibited

System: anti-amyloid fibril antibody OC
Experiment: Slot blot assay with anti-amyloid fibril antibody OC
Type: binding
Details: 10 μg recombinant protein; OC at 1:5,000 dilution
Method: (§1) FIG. 2A-2G. Pre-FadA as a key component of amyloid-like FadA. 2A. Single-letter amino acid (aa) sequence of FadA (SEQ ID NO:28). The intact pre-FadA consists of 129 aa, with the first 18-aa (top row) constitute the signal peptide. The remaining 111 aa constitute mFadA. The residues that are replaced in the mutant proteins used in this study are shown in red. 2B. Analysis of detergent resistant recombinant FadA polymers expressed in E. coli. An aliquot of 50 μg detergent-resistant pellets prepared from E. coli BL21(DE3) carrying the cloning vector pET21(b), pYWH417-6 (p_FadAc), or pYWH418 (p_mFadA) were analyzed by SDD-AGE, followed by Western blot analysis. FadA polymers were only detected in E. coli expressing FadAc, but not in mFadA or the vector control. 2C. Reactivity of recombinant FadA and its variants with anti-amyloid fibril antibody OC. A total of 10 μg each of recombinant protein mFadA, FadAc, FadA-L-9A, FadA-L14A, FadA-S71A, and FadA-L76A purified from E. coli was slot-blotted onto nitrocellulose and incubated with polyclonal OC antibody at 1:5,000 dilution. Amyloid-like recombinant Rim4 (Berchowitz et al., 2015) was used as a positive control and histone H1 was used as a negative control. Ponceau stain (pink color) is shown as a loading control. 2D. Thioflavin-T binding assay. FadA proteins at indicated concentrations were incubated with 10 μM Thioflavin-T at room temperature for 10 min. The fluorescent intensity was measured at excitation wavelength of 440 nm and emission wavelength of 500 nm. The experiment was performed in duplicate and repeated three times. *p<0.05, **p<0.01, ***p<0.001 (compared to BSA, t-test). 2E. Thioflavin-T binding assay in the presence of 0.1% SDS. FadA proteins (0.8 mg/ml) were incubated with 10 μM Thioflavin-T at room temperature for 10 min. The fluorescent intensity was measured at excitation wavelength of 440 nm and emission wavelength of 500 nm. The experiment was performed in duplicate and repeated three times. *p<0.05, **p<0.01 (compared to BSA, t-test). 2F. Western blot analysis of Fn12230 (Fn), fadA-deletion mutant US1 (ΔfadA) and spontaneous mutant lam following SDS-PAGE. A total of 400 μl of each culture grown to OD600 of 1.0 was pelleted and loaded onto 12% SDS-PAGE. FadA protein was detected using anti-FadA mAb 7H7 at 1:4,000 dilution. […] 2G. Analysis of amyloid-like FadA produced by Fn 23726 and its Δfap2 mutant. An aliquot of 50 μg detergent-resistant pellets was loaded onto each lane, followed by SDD-AGE and Western blot analysis as described above.
(§2) Slot blot assay. Ten micrograms each of purified recombinant protein was slot-blotted onto nitrocellulose membrane (BioRad) and assayed for reactivity with polyclonal anti-amyloid fibril antibodies OC (α-amyloid fibril OC, Sigma-Aldrich CAT #AB2286) at 1:5,000 dilution and goat-anti-rabbit IgG (GE Healthcare) at 1:10,000 dilution, or polyclonal anti-amyloid oligomer antibody A11 (α-oligomer A11 at 1:5,000 dilution, ThermoFisher Scientific CAT #AHB0052) and goat-anti-rabbit IgG at 1:10,000 dilution, followed by detection with ECL Prime (GE Healthcare). Amyloid-like recombinant Rim4 was used as a positive control (Berchowitz et al., 2015) and histone H1 was used as a negative control. Loading was assessed by Ponceau stain (Sigma CAT #P7170).

Molecule | reactivity with anti-amyloid fibril antibody OC
B1 | reacted
B2 | did not react
B3 | reacted
B4 | not with the anti-fibril OC
B5 | did not react

System: anti-amyloid oligomer antibody A11
Experiment: Slot blot assay with anti-amyloid oligomer antibody A11
Type: binding
Details: 10 μg recombinant protein; A11 at 1:5,000 dilution
Method: FIG. 8A-8C. 8A. SDS-PAGE analysis of recombinant FadAc and its variants. The proteins were purified as previously described (Xu et al., 2007). Approximately 2.5 μg of each purified protein were loaded onto 12% SDS-PAGE. Following electrophoresis, the gel was stained with Coomassie Blue G-250. 8B. Reactivities of recombinant FadA and its variants with anti-amyloid oligomer antibody A11. A total of 10 μg each of recombinant protein mFadA, FadAc, FadA-L-9A, FadA-L14A, FadA-S71A, and FadA-L76A purified from E. coli was slot-blotted onto nitrocellulose and incubated with polyclonal anti-amyloid oligomer antibody A11 at 1:5,000 dilution. Amyloid-like recombinant Rim4 (Berchowitz et al., 2015) was used as a positive control and histone H1 was used as a negative control. Ponceau stain (pink color) is shown as a loading control. 8C. Western blot analysis of wild-type Fn 23726 (1) and mutants Δfap2 (2) using anti-FadA mAb 7H7. The bottom panel is Coomassie blue stain for loading control.
as §2

Molecule | reactivity with anti-amyloid oligomer antibody A11
B1 | reacted
B2 | did not react
B3 | reacted
B4 | reacted weakly
B5 | did not react

System: not listed separately
Experiment: Thioflavin-T binding assay
Details: 0.1% SDS; FadA proteins 0.8 mg/ml; 10 μM Thioflavin-T
Method: as §1
Thioflavin-T binding assay. Thioflavin-T assay was conducted as previously described (Tukel et al., 2009). A mixture of 50 μl of FadA proteins and 50 μl of 10 μM Thioflavin-T was added to a black 96-well plate and incubated for 10 min at room temperature. After incubation, the fluorescence intensity was determined using a SpectraMax M5 microplate reader at excitation wavelength of 440 nm and emission wavelength of 500 nm. For SDS stability test, the FadA proteins were pre-incubated in 0.1% SDS for 30 min at room temperature, followed by Thioflavin-T binding assay as described above.

Molecule | Thioflavin-T binding in the presence of 0.1% SDS
B1 | bound Thioflavin-T
B3 | bound Thioflavin-T
B4 | did not bind Thioflavin-T

Same assay, conditions: without SDS; 10 μM Thioflavin-T; 10 min

Molecule | Thioflavin-T binding
B2 | did not bind Thioflavin-T
B4 | bound more Thioflavin-T than FadAc

System: not listed separately
Experiment: SDD-AGE and Western blot of detergent-resistant polymers
Type: physicochemical
Details: expressed in E. coli; SDD-AGE, Western blot with mAb 7H7
Method: FIG. 2A-2G. Pre-FadA as a key component of amyloid-like FadA. 2A. Single-letter amino acid (aa) sequence of FadA (SEQ ID NO:28). The intact pre-FadA consists of 129 aa, with the first 18-aa (top row) constitute the signal peptide. The remaining 111 aa constitute mFadA. The residues that are replaced in the mutant proteins used in this study are shown in red. 2B. Analysis of detergent resistant recombinant FadA polymers expressed in E. coli. An aliquot of 50 μg detergent-resistant pellets prepared from E. coli BL21(DE3) carrying the cloning vector pET21(b), pYWH417-6 (p_FadAc), or pYWH418 (p_mFadA) were analyzed by SDD-AGE, followed by Western blot analysis. FadA polymers were only detected in E. coli expressing FadAc, but not in mFadA or the vector control. 2C. Reactivity of recombinant FadA and its variants with anti-amyloid fibril antibody OC. A total of 10 μg each of recombinant protein mFadA, FadAc, FadA-L-9A, FadA-L14A, FadA-S71A, and FadA-L76A purified from E. coli was slot-blotted onto nitrocellulose and incubated with polyclonal OC antibody at 1:5,000 dilution. […] The fluorescent intensity was measured at excitation wavelength of 440 nm and emission wavelength of 500 nm. […] The fluorescent intensity was measured at excitation wavelength of 440 nm and emission wavelength of 500 nm. […] FadA protein was detected using anti-FadA mAb 7H7 at 1:4,000 dilution. […]

Molecule | formation of detergent-resistant polymers
B1 | formed detergent-resistant polymers
B4 | did not form polymers

System: not listed separately
Experiment: Circular dichroism (CD) test
Type: physicochemical
Details: wavelength range 190-250 nm; 0.2 mg/ml protein
Method: Circular dichroism (CD) test. CD was used to evaluate the secondary structure of FadA and its mutants. One hundred microliter of 0.2 mg/ml purified FadA was analyzed by Chirascan V100 Spectrometer using a 1 mm path-length fused quartz cell. The measurements are an average of three scans for each sample, captured at a scan rate of 1 sec., bandwidth and step size of 1 nm, over a wavelength range of 190-250 nm. CD spectra were recorded and analyzed with BestSel server (see www at bestsel.elte.hu/).

Molecule | α helix (%) | β strand (%)
B1 | 47.2 | 9.6
B2 | 44.2 | 11.6
B3 | 49.1 | 8
B4 | 27.9 | 18.8

System: HCT116 xenograft tumors
Experiment: not given
Details: shown previously (Rubinstein et al., 2013); cited from earlier work

Molecule | stimulation of xenograft tumor growth
B1 | stimulated xenograft tumor growth
B4 | not
